Common to all, as to assay type: biochemical
In experiment [1] the target is T1, human activated protein C (Homo sapiens, UniProt P04070).
T1 construct: purchased Haematologic Technologies
The experiment is described as follows: Inhibition of APC amidolytic activity (Spectrozyme PCa chromogenic substrate). As to conditions: for enhancement of APC inhibition by heparan sulfate chain: 10 μg/ml, APC and DrKIn-I 20 nM each; for Hill slope of dose-response curve / IC50: APC 10 nM. How it is done: (§1) B: Dose-response curves of APC (10 nM) inhibition by DrKIn-I in the absence (◯) and presence (●) of 0.1 U/ml heparin. C: To determine the minimum concentration of heparin required for the potentiation APC inhibition, the activity of APC (20 nM) was measured after the addition of DrKIn-I (20 nM) and varying concentrations of heparin (0-1000 mU/ml). D: To assess the ability of heparan sulfate and the minimum length of heparan sulfate required to potentiate DrKIn-I-mediated APC inhibition, the amidolytic activity of APC was determined in the presence of DrKIn-I (20 nM) and different lengths of heparan sulfate chains (10 μg/ml each). E, Time course of FVa inactivation by APC (1 nM) was assessed in the absence (●) or presence (▪) of 5 nM DrKIn-I, or in the presence of 5 nM DrKIn-I supplemented with 0.1 U/ml heparin (▴), as described in “Materials and methods”. F, The effect of DrKIn-I (0-250 nM) and/or heparin (0.1 U/ml) on APC-mediated FVa inactivation was determined after 10 minutes of incubation at 37° C. with APC (5 nM). Results shown are means±SD of three experiments.
All inhibition assays were performed in 96-wells microtiter plates in 25 mM Tris-HCl (pH 7.4), 150 mM NaCl, 2.5 mM CaCl2 and 5 mg/ml BSA. For comparison between DrKIn-I and DrKIn-II, the amidolytic activity of 10 nM APC, with or without 0.1 U/ml heparin, was assayed in the presence or absence of equal molar concentrations of DrKIn-I or DrKIn-II. Immediately after the addition of APC, Spectrozyme PCa was added and the rates of p-nitroaniline release were monitored at 405 nm for 10 minutes at 37° C. For dose response curves, APC was mixed with different concentrations of DrKIn-I in the presence or absence of heparin. The final concentrations were as follows: APC (10 nM), heparin (0.1 U/ml) and DrKIn-I (0-100 nM in the presence of heparin and 0-12800 nM in the absence of heparin). Dose-response curves were fitted using GraphPad Prism (GraphPad Software). In other inhibition experiments, varying concentrations of heparin ([…]) or different lengths of heparan sulfate chains (10 μg/ml) were added to equimolar concentrations of APC and DrKIn-I (20 nM each). In all the inhibition experiments, Spectrozyme PCa was added to a final concentration of 0.2 mM. Changes in absorbance were measured using SpectraMax M2^e Microplate Reader (Molecular Devices).

In experiment [2] the test system is protein C-deficient plasma. The experiment is described as follows: Thrombin generation assay in protein C-deficient plasma. The following applies: TM-containing protein C-deficient plasma, heparan sulfate. How it is done: Thrombin generation in normal (A) and protein C-deficient (B) plasma. Experiments were performed in the presence of heparan sulfate (2 μg/ml). Solid lines represent thrombin generation in the presence of 100 nM thrombomodulin (TM) and varying concentrations of DrKIn-I (●, 0 nM; ▪, 40 nM; ▴, 80 nM; ◯, 200 nM). Dashed lines represent thrombin generation in the absence of TM and DrKIn-I.
Briefly, 80 μl of either normal plasma, protein C-deficient plasma, FVIII-deficient plasma or FIX deficient plasma containing 2 μM corn trypsin inhibitor, 2 μg/ml heparan sulfate (four disaccharide units long), 30 μM DOPC/DOPS/DOPE (60:20:20) and 100 nM recombinant TM was incubated with 20 μl of 500-fold diluted TF solution (Innovin; Dade Behring) in the absence or presence of the indicated concentrations of DrKIn-I. Following incubation for 3 minutes at 37° C., thrombin generation was initiated by the dispensation of 20 μl of 2.5 mM fluorogenic substrate (Z-Gly-Gly-Arg-AMC.HCl) dissolved in 0.15 M NaCl, 60 mg/ml BSA and 100 mM CaCl2. Measurements were taken at 1 minute intervals on a SpectraMax M2^e Microplate Reader using an excitation wavelength of 360 nm and an emission wavelength of 460 nm. In some assays, experiments were performed in the absence of thrombomodulin. Results were evaluated using the Technothrombin TGA software (Technoclone).

The next experiment has as its target APC (Homo sapiens, UniProt P04070). In words: APC-mediated FVa inactivation assay (residual FVa activity, prothrombin time-based). Further details: purchased Haematologic Technologies. How it is done: as §1
In assays involving FVa, 20 nM purified FVa was incubated at 37° C. with a mixture containing 1 nM or 5 nM APC, 20 nM protein S, 20 μM DOPC/DOPS (75:25) and 5-250 nM DrKIn-I in the presence or absence of 0.1 U/ml heparin. At specific time intervals, 5 μl aliquots were removed and mixed with 50 μl of FV-deficient plasma. The residual FVa activities were quantified in a standard prothrombin time-based assay using a calibration curved obtained by adding variable amounts of FVa to FV-deficient plasma. All concentrations given were final concentrations.

Where [3] appears, read: in the presence of 0.1 U/ml heparin.

Entries after “also recorded” stand apart in the source; their conditions may differ.

T1 sequence (P04070 212-450 limits assumed): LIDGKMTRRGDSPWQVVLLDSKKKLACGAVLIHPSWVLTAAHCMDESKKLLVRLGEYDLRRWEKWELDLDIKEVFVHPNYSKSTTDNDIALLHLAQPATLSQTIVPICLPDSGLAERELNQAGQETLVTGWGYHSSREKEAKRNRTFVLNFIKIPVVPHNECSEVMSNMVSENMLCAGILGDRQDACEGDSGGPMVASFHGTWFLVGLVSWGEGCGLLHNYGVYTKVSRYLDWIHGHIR
T1 sequence (P04070 43-197 limits assumed): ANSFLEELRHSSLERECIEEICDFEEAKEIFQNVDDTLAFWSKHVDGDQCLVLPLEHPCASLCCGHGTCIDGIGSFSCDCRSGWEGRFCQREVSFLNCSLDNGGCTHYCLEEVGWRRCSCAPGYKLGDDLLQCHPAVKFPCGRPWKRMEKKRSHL
APC, sequence (P04070 212-450 limits assumed): as the sequence (P04070 212-450 limits assumed) above
APC, sequence (P04070 43-197 limits assumed): as the sequence (P04070 43-197 limits assumed) above

The term IC50 denotes the concentration that inhibits the measured activity by half. As to DrKIn-I (CGGNDNNFETRKKCRQTCGAPRKGRPT), the “inhibitory activity against APC in the absence of heparin” value in experiment [1] (10 nM inhibitor, 10 nM APC, no heparin) was “little inhibitory activity against APC”. The “potentiation of APC inhibition by heparin” value in experiment [1] (0.01 U/ml heparin, APC 20 nM, DrKIn-I 20 nM) is listed as “more than 70%”. The APC activity entry in experiment [1] (0.1 U/ml heparin, APC 20 nM, DrKIn-I 20 nM) is recorded as “no APC activity was detectable”. The “decrease of APC activity (inhibition of APC amidolytic activity)” value in experiment [1] (equimolar inhibitor and APC (10 nM each), 0.1 U/ml heparin, Spectrozyme PCa 0.2 mM) is 100%. Moreover, the “enhancement of APC inhibition by heparan sulfate chain” value is on record as approximately 25% in experiment [1] (heparan sulfate of 2 disaccharide units) and approximately 10% in experiment [1] (heparan sulfate of one disaccharide unit). Also, the results for the “Hill slope of dose-response curve” value in experiment [1] (in the absence of heparin) and in experiment [1] (setting [3]) were −0.85±0.02 and −3.64±0.30, respectively. The IC50 in experiment [1] (in the absence of heparin) was 88.9 ± 1 nM; in experiment [1] (setting [3]), 3.5 ± 0.2 nM. In addition, in experiment [1] (with vs without heparin), the “reduction of IC50 by heparin” value worked out at 25 fold. Further, the “thrombin generation profile (APC-independent)” value in experiment [2] is recorded as “did not alter the thrombin generation profile; also recorded: negligible effects”. Moreover, the “FVa protected from inactivation” value with APC (5 nM DrKIn-I with 0.1 U/ml heparin, APC 1 nM, FVa 20 nM) is listed as 100%; in the experiment with APC (250 nM DrKIn-I (50-fold molar excess) without heparin, APC 5 nM, 10 minutes), “less than 20%”. For the same substance, the “effect on APC-mediated FVa degradation” value with APC (without heparin (5 nM DrKIn-I, APC 1 nM, FVa 20 nM)) is recorded as “relatively no effect on APC activity; also recorded: negligible”.

Source of the values: patent publication US9206246B2, “Heparin/heparan sulfate-dependent inhibitors of activated protein C and uses thereof in treating hemophilic disorders” (Academia Sinica, priority 2012, dated 2015).
